This test deals with GST-GABARAP (human, UniProt O95166 1-117). Description: pull-down.

Results on one molecule are retold here after paper doi:10.1101/2022.10.04.510822 (bioRxiv, 2022).

GST-GABARAP, sequence (O95166 whole entry): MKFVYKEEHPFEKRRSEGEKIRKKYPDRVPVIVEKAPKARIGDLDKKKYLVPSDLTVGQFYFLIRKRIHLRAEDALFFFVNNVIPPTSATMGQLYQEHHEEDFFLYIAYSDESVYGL

KPHKHLPPAALHLIAYYKENKDREDKR [WSTF peptide PP4 (residues 466-492)]: the binding result is “binds”.
